Earlier results on 1 substance are cited in PMC4962041.

By Kd is commonly meant the free concentration of one partner at which half of the binding sites on the other are occupied at equilibrium, for simple one-to-one binding.

This data set addresses ubiquitin (UniProt P0CG48).

Chain of yDdi1 UBL (P40087 1-80): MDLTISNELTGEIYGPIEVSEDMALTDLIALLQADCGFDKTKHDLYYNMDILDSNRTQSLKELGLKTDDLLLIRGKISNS

As for yDdi1 UBL (from UniProt P40087), the Kd is 45 µM.
